The results in this text go back to paper PMC9694023.

This assay concerns the target T1, endogenous IRF7 of HEK293 cells (human (endogenous in HEK293)), Q92985.
T1 chain: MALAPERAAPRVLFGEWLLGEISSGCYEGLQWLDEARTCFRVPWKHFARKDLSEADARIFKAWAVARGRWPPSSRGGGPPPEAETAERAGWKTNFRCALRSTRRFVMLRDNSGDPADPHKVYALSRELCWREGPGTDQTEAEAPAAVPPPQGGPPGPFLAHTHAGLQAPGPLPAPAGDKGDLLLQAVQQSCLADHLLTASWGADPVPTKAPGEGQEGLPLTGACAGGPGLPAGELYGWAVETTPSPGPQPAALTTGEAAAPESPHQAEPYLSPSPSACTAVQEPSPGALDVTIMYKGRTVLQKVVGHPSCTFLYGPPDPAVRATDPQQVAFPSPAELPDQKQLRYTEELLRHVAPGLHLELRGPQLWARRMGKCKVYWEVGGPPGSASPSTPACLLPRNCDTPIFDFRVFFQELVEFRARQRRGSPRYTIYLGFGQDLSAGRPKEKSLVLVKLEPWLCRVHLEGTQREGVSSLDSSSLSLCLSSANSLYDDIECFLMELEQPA
In words: native gel or EMSA. Particulars: remark: other sources report otherwise. On the technique in general: Mobility shift assays separate free from complexed probe on a gel.

B1: endogenous IRF7 of HEK293 cells, Q92985 1-503 (natural protein)
chain: MALAPERAAPRVLFGEWLLGEISSGCYEGLQWLDEARTCFRVPWKHFARKDLSEADARIFKAWAVARGRWPPSSRGGGPPPEAETAERAGWKTNFRCALRSTRRFVMLRDNSGDPADPHKVYALSRELCWREGPGTDQTEAEAPAAVPPPQGGPPGPFLAHTHAGLQAPGPLPAPAGDKGDLLLQAVQQSCLADHLLTASWGADPVPTKAPGEGQEGLPLTGACAGGPGLPAGELYGWAVETTPSPGPQPAALTTGEAAAPESPHQAEPYLSPSPSACTAVQEPSPGALDVTIMYKGRTVLQKVVGHPSCTFLYGPPDPAVRATDPQQVAFPSPAELPDQKQLRYTEELLRHVAPGLHLELRGPQLWARRMGKCKVYWEVGGPPGSASPSTPACLLPRNCDTPIFDFRVFFQELVEFRARQRRGSPRYTIYLGFGQDLSAGRPKEKSLVLVKLEPWLCRVHLEGTQREGVSSLDSSSLSLCLSSANSLYDDIECFLMELEQPA
For orientation: stoichiometry N means the number of molecules, sites or subunits per partner or assembly. With B1, the stoichiometry N was 2.
